This is an account of results in article PMC4220304.

The target in this assay is L363 antibody (anti-CD1d-α-GalCer). Nature of the assay: SPR. In general terms: In SPR one partner is held on a chip, and binding of the other changes the refractive index at the surface.
As for “CD1d loaded with α-lyso-glucosylceramide (α-glucopsychosine) (from UniProt P11609 22-297; P01887 21-119) (complex)”, the Kd – broadly, the constant that tells how readily two partners part at equilibrium – worked out at 8140 nM; the koff (usually a measure of how fast the partners let go of each other) came to 0.115 s⁻¹; the on-rate (kon) (usually the rate constant with which the complex forms) worked out at 4590 M⁻¹ s⁻¹.

“CD1d loaded with α-GalCer (from UniProt P11609 22-297; P01887 21-119) (complex)” registered a Kd of 96.7 nM and a kon of 85700 M⁻¹ s⁻¹.

Turning to “CD1d loaded with C24:1 α-GalCer (from UniProt P11609 22-297; P01887 21-119) (complex)”, the dissociation constant (Kd) amounted to 350 nM and the kon came to 142000 M⁻¹ s⁻¹.

On to “CD1d loaded with α-lyso-galactosylceramide (α-psychosine) (from UniProt P11609 22-297; P01887 21-119) (complex)”, for which the Kd came out at 2230 nM and the kon came to 943000 M⁻¹ s⁻¹.

Substance “CD1d loaded with α-GluCer (from UniProt P11609 22-297; P01887 21-119) (complex)” displayed a Kd of 5020 nM, a koff of 0.471 s⁻¹ and a kon of 93700 M⁻¹ s⁻¹.
